Test results reported in publication PMC4576200 (Viruses, 2015).

Biological target: the molecule itself
Assay: AUC

B1: gp5β-BC, solvent-exposed part of the β-helical domain of bacteriophage T4 gene product 5 (residues 483–575) (domain or fragment, UniProt P16009 483-575, looked up)
chain: RGDETKTVEGNGTILVKGNVTIIVEGNADITVKGDATTLVEGNQTNTVNGNLSWKVAGTVDWDVGGDWTEKMASMSSISSGQYTIDGSRIDIG
- stoichiometry N: 3
